Laboratory results from patent US7186551B1, “3′-phosphoadenosine -5′-phosphosulfate synthetase 2 (PAPSS2) sequence variants” (Mayo Foundation for Medical Education and Research, priority 2001, dated 2007).
Substitutions are numbered along the chain they refer to. Values joined by “and” are separate entries in the source; they are usually repeats but may differ in a detail not shown here. Equal entries are not always repeated.

B1: Val291Met: PAPSS2 polypeptide allozyme having a methionine at amino acid 291 in place of valine (adenine at nucleotide 871) (protein)
chain: MSGIKKQKTENQQKSTNVVYQAHHVSRNKRGQVVGTRGGFRGCTVWLTGLSGAGKTTISFALEEYLVSHAIPCYSLDGDNVRHGLNRNLGFSPGDREENIRRIAEVAKLFADAGLVCITSFISPFAKDRENARKIHESAGLPFFEIFVDAPLNICESRDVKGLYKRARAGEIKGFTGIDSDYEKPETPERVLKTNLSTVSDCVHQVVELLQEQNIVPYTIIKDIHELFVPENKLDHVRAEAETLPSLSITKLDLQWVQVLSEGWATPLKGFMREKEYLQVMHFDTLLDDGMINMSIPIVLPVSAEDKTRLEGCSKFVLAHGGRRVAILRDAEFYEHRKEERCSRVWGTTCTKHPHIKMVMESGDWLVGGDLQVLEKIRWNDGLDQYRLTPLELKQKCKEMNADAVFAFQLRNPVHNGHALLMQDTCRRLLERGYKHPVLLLHPLGGWTKDDDVPLDWRMKQHAAVLEEGVLDPKSTIVAIFPSPMLYAGPTEVQWHCRSRMIAGANFYIVGRDPAGMPHPETKKDLYEPTHGGKVLSMAPGLTSVEIIPFRVAAYNKAKKAMDFYDPARHNEFDFISGTRMRKLAREGENPPDGFMAPKAWKVLTDYYRSLEKN
B2: Glu10Lys: PAPSS2 polypeptide allozyme having a lysine at amino acid residue 10 in place of glutamic acid (adenine at nucleotide 28) (protein)
chain: B1 chain with E10K, M291V
B3: Met281Leu: PAPSS2 polypeptide allozyme having a leucine at amino acid residue 281 in place of methionine (thymine at nucleotide 841) (protein)
chain: B1 chain with M281L, M291V
B4: Arg432Lys: PAPSS2 polypeptide allozyme having a lysine at amino acid 432 in place of arginine (adenine at nucleotide 1295) (protein)
chain: B1 chain with M291V, R432K

Key:
Type in all cases: biochemical, human
[1] = system: PAPSS2; test: PAPSS2 enzyme activity, coupled radiochemical assay (PAPS generation then SULT1E1-catalyzed sulfation of [3H]estradiol) with COS-1 expressed recombinant allozymes; conditions: non-His-tagged expression vector p91023(b), COS-1 cells, corrected for transfection efficiency
[2] = system: PAPSS2; test: as above; conditions: for % WT activity / decrease in enzyme activity compared with the wild type enzyme: His-tagged recombinant allozyme, loxP-modified p91023(b) vector, COS-1 cells, corrected for transfection efficiency; for activity relative to the reference PAPSS2 (in words): general statement in the description
Source text: Variant alleles of the four non-synonymous PAPSS2 cSNPs observed during the resequencing experiments were created using the QuickChange Site-Directed Mutagenesis Kit (Stratagene, La Jolla, Calif.), with wild type PAPSS2 cDNA in pUni as template. The sequence of the pUni insert was confirmed by completely sequencing both strands before recombination with the loxP-modified p91023(b) acceptor vector. pUni donor vectors that contained wild type and variant PAPSS2 cDNAs, as well as empty pUni, then were combined with the loxP-modified p91023(b) acceptor vector to generate the final expression constructs. In all cases, the fusion junctions of resultant expression constructs were sequenced to confirm that the construct was a dimer consisting of only a single donor and a single acceptor vector. These expression constructs were used to transfect COS-1 cells using TransFast™ reagent (Promega) with a 1:1 charge ratio. pSV-β-galactosidase (Promega) was co-transfected with each construct as an internal control to correct for transfection efficiency. Transfected COS-1 cells were harvested after 48 hours and were homogenized with a Polytron homogenizer (Brinkmann Instruments, Westbury, N.Y.) in 25 mM potassium phosphate buffer, pH 7.8, containing 1 mM dithiothreitol (DTT) and 1 mM EDTA. The homogenates were centrifuged at 15,000 g for 15 minutes, and the resultant supernatant preparations were used to perform enzyme assays, substrate kinetic studies and Western blot analyses. In some cases, aliquots of these cytosol preparations were stored at −80° C. prior to assay.
PAPSS2 Enzyme Activity: PAPSS2 activity was measured with a coupled radiochemical assay. See Xu et al., 2001, supra. Briefly, PAPS is generated from ATP and Na2SO4 in a PAPSS2-catalyzed reaction. The generated PAPS is then used as a substrate for the SULT1E1-catalyzed sulfate conjugation of [2,4,6,7-^3H]estradiol, a radioactively labeled sulfate acceptor substrate. The cell homogenate preparations of recombinant PAPSS2 allozymes described above were used for the activity studies without any further purification. The protein concentration of each recombinant protein preparation was determined by the dye-binding method of Bradford with bovine serum albumin (BSA) as a standard.
PAPS synthesis was catalyzed by recombinant wild-type PAPSS2 or PAPSS2 allozymes (present in the cell homogenate preparations described above) in the presence of 1 mM ATP, 16 mM Na2SO4, 1 mM MgCl2, and 2 mM DTT in 60 mM glycine-NaOH buffer, pH 8.6. Blank samples included the same quantity of COS-1 cytosol protein from cells that had been transfected with empty expression vector to make it possible to correct for endogenous activity. Reaction mixtures were incubated at 37° C. for 20 minutes, and then terminated by heating at 100° C. for 1 minute. An aliquot from this PAPS-generating reaction was then added to a second, coupled reaction containing recombinant human SULT1E1 isolated from COS-1 cells transfected with a SULT1E1 expression construct (see Aksoy et al., Biochem. Biophys. Res. Commun., 200:1621–1629 (1994)). The coupled reaction also included 27 nM [2,4,6,7-^3H]estradiol, 8 mM DTT and 1.25 mM MgCl2 in 10 mM potassium phosphate buffer, pH 6.5. The second, SULT1E1-catalyzed reactions were incubated at 37° C. for 20 minutes, and then terminated by the addition of KOH, followed by organic solvent extraction performed with chloroform. Radioactivity of the sulfate conjugated [2,4,6,7-^3H]estradiol in the aqueous phase after organic solvent extraction was then measured in a liquid scintillation counter. PAPSS activities of recombinant PAPSS2 allozymes were compared after correction for transfection efficiency by measuring the activity of cotransfected P-galactosidase. β-Galactosidase activity in the COS-1 cell preparations was measured with the β-Galactosidase Assay System (Promega) as described by the manufacturer. […]

[3] = system: PAPSS2; test: Substrate kinetic studies of recombinant PAPSS2 with ATP and Na2SO4
Protocol: To estimate apparent Km values of PAPSS2 for the two reaction cosubstrates, a series of ATP (0.125–4 mM) and Na2SO4 (0.125–16 mM) concentrations were tested with the recombinant allozymes. When ATP was the varied substrate, the concentration of Na2SO4 was 4 mM, and when Na2SO4 was the varied substrate, the concentration of ATP was 1 mM. Blanks for each substrate concentration were included by assaying COS-1 cell cytosol after transfection with empty vector.
Data Analysis: Apparent Km values were calculated by using the method of Wilkinson with a computer program written by Cleland. Wilkinson, Biochem. J., 80:324–332 (1961); and Cleland, Nature, 198:[…] (1963). Statistical comparisons of data were performed by ANOVA with the StatView program, version 4.5 (Abacus Concepts, Inc., Berkeley, Calif.). Apparent Km, S50 and Vmax values for the wild-type and variant PAPSS2 allozymes were compared by the use of unpaired Student's t-test.
Alterations in amino acid sequence can alter enzyme substrate affinity and/or catalytic efficiency. Decreased activity of the Val291Met allozyme—without a significant alteration in level of enzyme protein—could have resulted from a change in substrate kinetics. Therefore, a series of ATP (0.125–4 mM) and Na2SO4 (0.125–16 mM) concentrations were used to estimate apparent Km values for recombinant wild type PAPSS2 and for the Val291Met variant allozyme. […] ATP concentrations at which 50% maximal velocity was achieved (S50 values) were 0.70 and 0.95 mM for the wild type and variant allozymes, respectively (Table 4). In both cases, the Hill coefficient was greater than 2, […]. In contrast, substrate kinetics of both allozymes for Na2SO4 conformed to Michaelis-Menten predictions (FIG. 5B). […] In summary, decreased activity for the Val1291Met variant appeared to result from an alteration in substrate kinetics, while decreased activity for the Glu10Lys allozyme, in contrast, resulted primarily from a decrease in the quantity of enzyme protein. Because the Val291Met variant was encoded by a construct that contained the most common PAPSS2 nonsynonymous cSNP, these observations could have functional implications for the sulfate conjugation of both endogenous and/or exogenous compounds.

Molecule | activity reduced compared with wild type [1] | % WT activity [2] | decrease in enzyme activity compared with the wild type enzyme [2] | activity relative to the reference PAPSS2 (in words) [2] | S50 for ATP (ATP concentration at which 50% maximal velocity was achieved) ([3]; ATP varied 0.125-4 mM, Na2SO4 4 mM) | Km ([3]; apparent Km, Na2SO4 varied 0.125-16 mM, ATP 1 mM) | Vmax/S50, ATP ([3]; ratio, wild type = 100, ATP as varied substrate) | Vmax, ATP ([3]; relative Vmax, wild type = 100, ATP as varied substrate) | Vmax, Na2SO4 ([3]; relative Vmax, wild type = 100, Na2SO4 as varied substrate)
B1 | 57.4% | 37.1 ± 6.9% | 62.9% | reduced activity | 0.95 mM and 0.95 ± 0.02 mM | 3000 µM | 27.8 ± 3.3 | 37 ± 3.9 | 45 ± 2.4
B2 | 14.1% | 72.6 ± 7.2% | 27.4% | reduced activity |  |  |  |  | 
B3 |  | 107.7% and 107.7 ± 2.9% |  | activity that is comparable to the reference PAPSS2 |  |  |  |  | 
B4 |  | 104.8% and 104.8 ± 10.1% |  | activity that is comparable to the reference PAPSS2 |  |  |  |  | 
